Laboratory results from patent US20250099622A1, “COMPOSITIONS AND METHODS FOR EXPRESSING THERAPEUTICS” (priority 2022, published 2025).
Blank lines part the entries; values can stand above or below the molecule they belong to.

Legend:
Human NPR-B = biological target: T1, Human NPR-B (Homo sapiens, UniProt P20594); test: Biacore SPR kinetic affinity binding to immobilized NPR-B
T1 construct: purchased R&D system
T1 sequence (P20594 23-458 limits assumed): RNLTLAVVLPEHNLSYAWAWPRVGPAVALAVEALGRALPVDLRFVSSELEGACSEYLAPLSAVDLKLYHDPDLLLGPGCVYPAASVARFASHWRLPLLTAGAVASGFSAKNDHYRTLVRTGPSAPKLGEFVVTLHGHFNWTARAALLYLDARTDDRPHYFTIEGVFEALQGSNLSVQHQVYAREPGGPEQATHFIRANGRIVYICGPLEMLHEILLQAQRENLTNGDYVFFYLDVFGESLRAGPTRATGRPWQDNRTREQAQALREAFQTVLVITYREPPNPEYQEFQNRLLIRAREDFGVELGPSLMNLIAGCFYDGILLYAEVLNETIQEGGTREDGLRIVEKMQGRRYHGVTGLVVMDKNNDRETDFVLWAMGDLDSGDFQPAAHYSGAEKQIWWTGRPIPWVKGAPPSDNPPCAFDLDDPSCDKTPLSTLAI
Experimental: The biological function of these purified protein was assayed for their stimulation of production of cGMP, using NPR-B receptor positive cell line, NIH/3T3 and NPR-B negative cell line HEK293 cells. The determination of cGMP was assay by ELISA using commercial CNP as standard curves. […] Surface preparation. NBR-B was immobilized at different levels in three flow cells via standard amine coupling, leaving Fc 1 unmodified to serve as a reference. All surface plasmon resonance (SPR) analysis was performed on a BIAcore 3000 system using series CM5 sensor chips. Data processing and analysis were performed using BIAevaluation software. All sensorgrams were double referenced by subtracting the response on a reference flow cell and a blank sample. Human NPR-B (R&D system) was covalently attached to a CM5 chip via amine coupling. A surface density of 6600 RU was used for measurements with natriuretic peptides Sequential injections of CNP (0.5-8 nM) were performed at a flow rate of […] (300 s for each), followed by a dissociation time of 900 s. […] Kinetic parameters were calculated assuming a simple 1:1 (Langmuir) binding. […] All SPR analysis was performed on a BIAcore 3000 system using series CM5 sensor chips. Data processing and analysis were performed using BIAevaluation software. All sensorgrams were double referenced by subtracting the response on a reference flow cell and a blank sample. Human NPR-B (R&D system) was covalently attached to a CM5 chip via amine coupling. A surface density of 3100 RU was used for measurements with natriuretic peptides Sequential injections of AMI263 (FC4-CNP) (0.125-2 nM) were performed at a flow rate of […] (300 s for each), followed by a dissociation time of 900 s. […] Kinetic parameters were calculated assuming a simple 1:1 (Langmuir) binding. […] All SPR analysis was performed on a BIAcore 3000 system using series CM5 sensor chips. Data processing and analysis were performed using BIAevaluation software. All sensorgrams were double referenced by subtracting the response on a reference flow cell and a blank sample. Human NPR-B (R&D system) was covalently attached to a CM5 chip via amine coupling. […] Kinetic parameters were calculated assuming a simple 1:1 (Langmuir) binding. […] All SPR analysis was performed on a BIAcore 3000 system using series CM5 sensor chips. Data processing and analysis were performed using BIAevaluation software. All sensorgrams were double referenced by subtracting the response on a reference flow cell and a blank sample. Human NPR-B (R&D system) was covalently attached to a CM5 chip via amine coupling. A surface density of 3100 RU was used for measurements with natriuretic peptides Sequential injections of AMI263 (FC4-CNP) (0.5-300 nM) were performed at a flow rate of […] (300 s for each), followed by a dissociation time of 900 s. […] Kinetic parameters were calculated assuming a simple 1:1 (Langmuir) binding. […] All SPR analysis was performed on a BIAcore 3000 system using series CM5 sensor chips. Data processing and analysis were performed using BIAevaluation software. All sensorgrams were double referenced by subtracting the response on a reference flow cell and a blank sample. Human NPR-B (R&D system) was covalently attached to a CM5 chip via amine coupling.

HEK293 cells = test: CNP-Fc ELISA of supernatant of AAV-transduced HEK293 cells; assay type: cell-based, Human; conditions: CNP-Fc in HEK293 supernatant 5 days after transduction with 100,000 MOI of AAV2 N54 vector
Experimental: C-type natriuretic peptide (CNP) has two isoforms, CNP-22 and CNP-53. Example 2 illustrates that CNP-36 fused with Fe increased the half-life of the CNP and also facilitated in purification and ELISA detection when compared to native (unfused) CNP. Transduction and CNP-Fc expression experiments were performed with three AAV vectors (AMI061, AMI087 and AMI0488). FIG. 1A is the pictorial depiction of the three vectors. FIGS. 1B-F illustrate additional vectors that can encode the CNP or the CNP fusion protein. Enzyme-linked immunoassay (ELISA) was developed for quantifying CNP-Fc fusion proteins in cell culture supernatants. The ELISA assay was used to quantify CNP-Fc expressed in HEK293 cells, human chondrocytes (HCH) cells, and human skeletal muscle cells (hSkMC) upon transduction with one of the three AAV constructs described herein.
Buffer and substrate. Coating buffer: 3.7 g sodium bicarbonate, 0.64 g sodium carbonate in 1 L of Milli Q water, pH 9.6. Stored at RT; Blocking buffer: Commercial Casein blocking buffer in PBS+ added 0.1% Tween20. Stored at 4° C.; Standard diluent: same as blocking buffer; Wash buffer: 1×PBS with 0.1% tween 20 (30 days expiry from date of manufacture); Coating Antibody (Ab): Human CNP Antibody (monoclonal), coating concentration was 2 μg/mL; Detection Ab: Goat pAb anti-human Fc. Diluted up to 1:20,000 final dilution in well. Stored at 4° C.; HRP: Streptavidin-HRP stock of 1 mg/mL, diluted up to 1:10,000. Stored at 4° C.; Substrate: TMB. Stored at 4° C.; and Stop solution: 2 N HCl. Stored at ambient temperature.
• 1. Coat 96-well plate with 2 μg/mL anti-CNP antibody final concentration per well in the coating buffer with a 50 μL volume and cover the plate with sealing cover. Put the plate at 4° C. overnight. • 2. Next day, remove the plate, wash thrice with wash buffer and tap the plate on the paper towel to remove excess solution. • 3. Add 300 μL of blocking buffer to each well using multichannel pipette. […] Add 50 μL stop solution and read plate at 450 nm with 600 as reference within 15 min. […]

[1] = tested on: NIH3T3 cells (cGMP secreted); test: EC50 for CNP-Fc constructs, cGMP ELISA of NIH3T3 supernatant; assay type: cell-based; conditions: NIH3T3, 30 minutes, 1.8 mM IBMX, cGMP secreted by the cells; FIG. 25B
Experimental: EC50 for CNP-Fc described herein were measured by ELISA. 2.5E+05 NIH3T3 cells/well were plated. […] After 30 minutes, supernatant was collected for cGMP determined via ELISA. FIG. 25A illustrates a standard curve of cGMP.

[2] = biological target: T2, NPR-B on NIH/3T3 cells (NPR-B receptor positive cell line) (UniProt Q6VVW5 17-1047, limits assumed); test: cell-based or functional assay
T2 sequence (looked up): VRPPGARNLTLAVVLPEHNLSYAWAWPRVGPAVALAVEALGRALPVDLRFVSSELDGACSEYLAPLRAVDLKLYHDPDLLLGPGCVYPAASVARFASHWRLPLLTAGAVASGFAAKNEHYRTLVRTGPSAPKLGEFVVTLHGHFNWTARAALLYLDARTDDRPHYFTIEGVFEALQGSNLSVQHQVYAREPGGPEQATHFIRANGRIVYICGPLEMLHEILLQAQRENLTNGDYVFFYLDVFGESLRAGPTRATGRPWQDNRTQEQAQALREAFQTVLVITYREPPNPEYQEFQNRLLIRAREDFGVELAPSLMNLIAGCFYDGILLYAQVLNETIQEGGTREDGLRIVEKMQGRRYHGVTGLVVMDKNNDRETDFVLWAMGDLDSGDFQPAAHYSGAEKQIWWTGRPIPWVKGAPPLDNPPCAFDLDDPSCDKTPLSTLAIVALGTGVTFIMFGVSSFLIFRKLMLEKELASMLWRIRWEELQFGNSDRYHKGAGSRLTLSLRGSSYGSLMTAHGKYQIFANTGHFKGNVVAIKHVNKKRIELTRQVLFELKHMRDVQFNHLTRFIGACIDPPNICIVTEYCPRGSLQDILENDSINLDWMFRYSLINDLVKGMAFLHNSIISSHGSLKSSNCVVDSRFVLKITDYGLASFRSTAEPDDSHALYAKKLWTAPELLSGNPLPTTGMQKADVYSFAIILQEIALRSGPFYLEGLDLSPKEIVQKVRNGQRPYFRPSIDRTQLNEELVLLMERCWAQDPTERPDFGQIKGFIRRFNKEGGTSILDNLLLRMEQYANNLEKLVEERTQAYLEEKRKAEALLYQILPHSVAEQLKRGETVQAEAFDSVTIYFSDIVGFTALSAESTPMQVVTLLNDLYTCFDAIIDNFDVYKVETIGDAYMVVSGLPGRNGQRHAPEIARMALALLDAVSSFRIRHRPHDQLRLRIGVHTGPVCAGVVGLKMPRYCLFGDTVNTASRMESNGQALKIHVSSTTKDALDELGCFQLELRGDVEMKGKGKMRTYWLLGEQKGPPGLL

Molecule: AMI087: purified CNP-Fc fusion protein CNP36-(G4S)4-Fc1, SEQ ID NO: 132
ka (Human NPR-B; (FIG. 7C-7I)): 3.65E3
kd (Human NPR-B; (FIG. 7C-7I)): 1.53E-3
ka (Human NPR-B; Table 32 summary of affinity): 3.65E+03
kd (Human NPR-B; Table 32 summary of affinity): 1.53E−03
Concentration (HEK293 cells): 33 µg/mL

Molecule: AMI269: fusion protein Fc4-(G4S)4-CNP22, SEQ ID NO: 136
EC50 values (rank order) [1]: CNP-22 ≡Fc4-CNP36>Aflibercept-Fc4-CNP36>Fc1-CNP36>>Fc4-CNP22

EC50 (cGMP production, drawn table, row ANP) [2]: 112 nM
EC50 (read off the curve), cGMP production [2]: ~100 nM
Molecule: SLRRSSCFGGRMDRIGAQSGLGCNSFRY (peptide, UniProt P01160 124-151, looked up) [ANP]
